One may read the stoichiometry N as the number of molecules, sites or subunits per partner or assembly.

The experiment has as its target WT BG505 SOSIP.664 gp140 trimer (HIV-1 clade-A BG505). The experiment in a line: negative-stain EM.

Turning to “WT BG505 SOSIP.664 gp140 trimer (complex)”, the stoichiometry N worked out at 3.

The record behind these values is article PMC4931249.
